{"source": "patent US20070218504A1", "about": "“HUMAN LEPTIN-DERIVED POLYPEPTIDES AND USES THEREOF” (UNIVERSITY OF PITTSBURGH, priority 2006, published 2007)", "molecules": {"B1": {"name": "mouse leptin (ligand, UniProt P41160 22-167, looked up)", "chain": "VPIQKVQDDTKTLIKTIVTRINDISHTQSVSAKQRVTGLDFIPGLHPILSLSKMDQTLAVYQQVLTSLPSQNVLQIANDLENLRDLLHLLAFSKSCSLPQTSGLQKPESLDGVLEASLYSTEVVALSRLQGSLQDILQQLDVSPEC", "modifications": "125I-labelled in the receptor binding assay of FIG. 4B", "notes": "also called murine-leptin; recombinant mouse leptin"}, "B2": {"name": "Mouse leptin: mouse recombinant leptin (protein)", "chain": "B1 chain"}, "B3": {"name": "human C-reactive protein (other, UniProt P02741 19-224, looked up)", "chain": "QTDMSRKAFVFPKESDTSYVSLKAPLTKPLKAFTVCLHFYTELSSTRGYSIFSYATKRQDNEILIFWSKDIGYSFTVGGSEILFEVPEVTVAPVHICTSWESASGIVEFWVDGKPRVRKSLKKGYTVGAEASIILGQEQDSFGGNFEGSQSLVGDIGNVNMWDFVLSPDEINTIYLGGPFSPNVLNWRALKYEVQGEVFTKPQLWP", "notes": "also called human CRP; CRP"}}, "key": {"human CRP": {"molecular_target": "T1, human CRP (Homo sapiens, UniProt P02741)", "T1 construct": "purchased CHEMICON or EMD Biosciences", "T1 sequence (P02741 19-224)": "B3 chain", "assay": "Polypeptide blocking of human CRP inhibition of leptin-stimulated STAT3 tyrosine phosphorylation in HEK-293 cells over-expressing OB-Rb", "assay_type": "cell-based", "settings": "for restoration of leptin-stimulated STAT3 activation in presence of human CRP, Example 8 comparison: human CRP 8 μg/ml, human leptin 2 nM, 1 hour pre-incubation, up to 0.8 μM (800 nM); for effect of polypeptide by itself on STAT phosphorylation: control, polypeptide alone; for blocking of the inhibitory effect of human CRP on leptin signaling (STAT3 tyrosine phosphorylation): polypeptide pre-incubated with human CRP 30 minutes, then human leptin 45 minutes", "protocol": "In the in vitro experiment, each of these polypeptide was pre-incubated with human CRP for 30 minutes before being mixed with human leptin for an additional 45 minutes. The resultant mixture was then added to the HEK-293 cells over-exprssing the long form leptin receptors, OB-Rb. After a 30-minute incubation, the cells were harvested in a protein extraction buffer (18). The signaling of leptin in the cells, measured by its ability to stimulate tyrosine phosphorylation on STAT3 in a western blot assay, was evaluated (see FIGS. 8, 9, 10 for polypeptides B, C1 and E, respectively).\nPursuant to an in vitro protocol similar to that described in Example 6, a hexamer disclosed in U.S. Pat. No. 6,777,388, NH2—S—C—H-L-P—W—COOH (SEQ ID NO:18), was pre-incubated with human CRP (8 μg/ml) and human leptin (2 nM) for 1 hour. The resultant mixture then was added to HEK-293 cells that over-expressed the long form leptin receptor, OB—Rb. After a 30-minute incubation, the cells were harvested in a protein extraction buffer. To evaluate signaling of human leptin in the cells, tyrosine phosphorylation on STAT3 was measured in a western blot assay."}, "ob/ob mice [1]": {"tested_on": "ob/ob mice", "assay": "Co-infusion of polypeptide E with human CRP and leptin through mini-osmotic pumps into ob/ob mice", "assay_type": "in vivo, mouse", "settings": "for restoration of satiety and weight-reducing effects of human leptin (food intake, body weight): Pep-E 24 or 48 μg/day/mouse with human CRP 48 μg/day/mouse and leptin 12 μg/day/mouse", "protocol": "FIG. 11. […] Infusion dosages for human CRP and leptin were 48 μg/day/mouse and 12 μg/day/mouse, respectively. The infusion rate for Pep-E (P) was 24 μg/day/mouse (medium dosage, “m”) and 48 μg/day/mouse (high dosage, “h”). Food-intake (A and C) and body weight (B and D) were monitored daily throughout the infusion. The arrows in A-D indicate the day of surgery. At the end of infusion, blood samples were collected for the measurement of blood-glucose, human CRP, and human leptin. The serum concentrations of human CRP and human leptin were 0.85±0.1 μg/ml and 18 ng±2 ng/ml, respectively. […] Also shown is glucose concentration from mice infused with human CRP and leptin but not with Pep-E.\nIn the in vivo experiment, polypeptide E was co-infused through mini-osmotic pumps with human CRP and leptin into the ob/ob mice. Food intake in the period of 24 hours and body weight were followed during the infusion period (FIGS. 11A-11D)."}, "[2]": {"molecular_target": "long-form human leptin receptor, OB-Rb (human) (UniProt P48357)", "sequence (P48357 22-1165)": "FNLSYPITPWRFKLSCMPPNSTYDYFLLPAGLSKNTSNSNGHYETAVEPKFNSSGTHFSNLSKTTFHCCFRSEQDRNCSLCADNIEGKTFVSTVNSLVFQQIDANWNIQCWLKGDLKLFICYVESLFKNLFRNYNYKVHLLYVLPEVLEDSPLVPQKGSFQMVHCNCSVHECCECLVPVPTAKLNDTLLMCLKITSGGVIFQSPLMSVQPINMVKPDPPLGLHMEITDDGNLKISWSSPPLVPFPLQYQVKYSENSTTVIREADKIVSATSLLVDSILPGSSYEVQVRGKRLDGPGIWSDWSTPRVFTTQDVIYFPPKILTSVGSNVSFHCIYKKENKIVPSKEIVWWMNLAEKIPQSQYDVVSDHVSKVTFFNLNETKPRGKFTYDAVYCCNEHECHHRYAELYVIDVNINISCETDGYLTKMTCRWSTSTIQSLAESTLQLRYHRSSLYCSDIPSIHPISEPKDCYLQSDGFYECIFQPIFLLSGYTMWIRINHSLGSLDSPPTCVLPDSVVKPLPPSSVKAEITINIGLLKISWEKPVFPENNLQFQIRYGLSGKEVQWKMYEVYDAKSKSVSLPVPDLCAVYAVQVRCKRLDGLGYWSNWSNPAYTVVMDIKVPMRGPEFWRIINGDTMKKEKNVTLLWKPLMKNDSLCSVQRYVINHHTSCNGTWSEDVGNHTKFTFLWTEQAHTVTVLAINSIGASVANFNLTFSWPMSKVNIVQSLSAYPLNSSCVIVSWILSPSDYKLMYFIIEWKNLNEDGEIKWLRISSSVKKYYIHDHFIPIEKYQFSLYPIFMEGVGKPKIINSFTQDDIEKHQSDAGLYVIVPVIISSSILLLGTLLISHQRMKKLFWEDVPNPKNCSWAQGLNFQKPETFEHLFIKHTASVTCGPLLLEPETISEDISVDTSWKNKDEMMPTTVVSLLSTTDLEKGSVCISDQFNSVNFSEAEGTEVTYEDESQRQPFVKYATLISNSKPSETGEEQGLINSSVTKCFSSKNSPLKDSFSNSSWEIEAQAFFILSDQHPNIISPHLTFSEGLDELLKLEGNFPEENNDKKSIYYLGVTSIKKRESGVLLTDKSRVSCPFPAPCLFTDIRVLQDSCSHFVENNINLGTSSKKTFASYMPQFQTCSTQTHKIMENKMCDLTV", "assay": "125I-human leptin binding to HEK293 cells stably transfected with human OB-Rb"}, "[3]": {"tested_on": "tyrosine phosphorylation of STAT3", "assay": "Leptin-induced tyrosine phosphorylation of STAT3 in HEK293 cells over-expressing OB-Rb in the presence of CRP (Western blot)", "assay_type": "cell-based, human", "settings": "separate control, concentrations much higher than CRP", "protocol": "To determine if the interaction between CRP and leptin dampens the cellular actions of leptin, the ability of leptin to stimulate tyrosine phosphorylation of STAT3 and PI3-kinase activity was assessed in the presence of CRP in vitro. HEK293 cells over-expressing OB-Rb were serum starved for 2 hours before addition of leptin and CRP (CHEMICON or EMD Biosciences). Leptin, in the presence or absence of CRP, was pre-incubated in μ-MEM (with additional 1 mM Ca^2+) for 30 minutes at 37° C. before being applied to the cells. After a 30-minute incubation with leptin, the cells were harvested in lysis buffer (18). The resultant protein extract was subjected to a Western blot analysis using an anti-phospho-STAT3 specific antibody (Cell Signaling, Beverly, Mass.). For studies involving primary hypothalamic neurons, the hypothalamus from rats was surgically isolated immediately after euthanasia, and placed in the DMEM for incubation with leptin in the presence or absence of CRP."}, "rat C-reactive protein": {"molecular_target": "T2, rat C-reactive protein (rat, UniProt P48199 20-230)", "T2 construct": "mature; also called rat CRP; rat SLIP-1", "T2 sequence (looked up)": "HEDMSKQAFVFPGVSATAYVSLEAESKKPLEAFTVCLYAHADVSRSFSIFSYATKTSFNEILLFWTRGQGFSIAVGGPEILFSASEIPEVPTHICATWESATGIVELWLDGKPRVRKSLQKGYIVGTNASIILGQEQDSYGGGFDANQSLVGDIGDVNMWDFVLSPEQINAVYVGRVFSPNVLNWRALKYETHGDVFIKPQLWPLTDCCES", "assay": "rat serum on mouse leptin-Sepharose affinity column; eluted band identified by MALDI-TOF", "protocol": "Retained material was eluted with an acidic glycine solution, and the eluate was immediately neutralized in a Tris-buffer (50 mM, pH=9.5).\nThe mass-spec assay was performed on Thermo Finnigan LTQ mass spectrometer by CTO-BIO Services (Rockville, Md.). Data analysis was carried out with the Turbo-Sequest software."}, "ob/ob mice [4]": {"tested_on": "ob/ob mice", "assay": "Intracerebralventricular (i.c.v.) injection of human CRP and leptin in ob/ob mice, food intake and body weight", "assay_type": "in vivo, mouse"}, "human leptin": {"molecular_target": "T3, human leptin (human, UniProt P41159 22-167, 125I-labelled (Iodogen method) in the receptor binding assay of Example 3)", "T3 construct": "Recombinant human leptin from AF Parlow, NHPP; also called recombinant human leptin", "assay": "human CRP pre-incubated with 125I-human leptin (~2 ng/ml); inhibition of leptin binding to OB-Rb on HEK293 cells", "protocol": "After 10-minute incubation at room temperature, the reaction was stopped with 100 μl 0.1% trifluoroacetic acid (TFA). The reaction mixture was immediately purified by reverse-phase HPLC. The separation employed a 5-minute isocratic step at 20% eluant B in A, followed by two consecutive 30 min linear gradients from 20 to 50%, then from 50 to 60% eluant B in A (where eluant A is water containing 0.1% TFA and eluant B is acetonitrile containing 0.1% TFA) at a flow rate of 1.5 ml/min. […] The incubation would last for 3 hour at 4° C. before the media was aspirated and the cells were dissolved in 0.1N NaOH for scintillation counting."}, "[5]": {"settings": "mouse leptin i.c.v. after human CRP"}}, "note": "Entries after “also recorded” stand apart in the source; their conditions may differ.", "data": [{"molecule": "H-WPLHCS-OH [D-form, reference compound]", "values": [{"measurement": "restoration of leptin-stimulated STAT3 activation in presence of human CRP, Example 8 comparison", "setting": "human CRP", "value": "failed to restore"}]}, {"molecule": "VSSKQKVTGLDFIPGLHPILTLSKM (listed as Homo sapiens) [polypeptide C1, chemically synthesized human leptin-derived polypeptide, residues 51 to 75]", "values": [{"measurement": "concentration at which the maximal effect can be reached", "setting": "human CRP; FIG. 9A", "value": 50, "unit": "nM"}, {"measurement": "effect of higher concentration", "setting": "human CRP; FIG. 9B", "value": "does not further improve its effect"}, {"measurement": "relative effectiveness in blocking the CRP activity on leptin", "setting": "human CRP; compared with the other polypeptides", "value": "more effective at a lower concentration"}, {"measurement": "effect of polypeptide by itself on STAT phosphorylation", "setting": "human CRP", "value": "did not induce any changes; also recorded: does not have any effect"}, {"measurement": "blocking of the inhibitory effect of human CRP on leptin signaling (STAT3 tyrosine phosphorylation)", "setting": "human CRP", "value": "able to block the inhibitory effect of human CRP and to restore leptin signaling"}]}, {"molecule": "LAFSKSCHLPWASGLETLDSLGGVLEA (listed as Homo sapiens) [polypeptide E, chemically synthesized human leptin-derived polypeptide, residues 111 to 137]", "values": [{"measurement": "restoration of satiety and weight-reducing effects of human leptin (food intake, body weight)", "setting": "ob/ob mice [1]", "value": "able to restore both of these functions"}, {"measurement": "restoration of satiety and weight-reducing effects of human leptin (food intake, body weight)", "setting": "ob/ob mice [1]; listed as Peptide-E", "value": "restored the physiological effects of human leptin"}, {"measurement": "restoration of effect of human leptin on blood glucose", "setting": "ob/ob mice [1]; end of infusion, high dosage Pep-E", "value": "able to restore the beneficial effect"}, {"measurement": "effect of polypeptide by itself on STAT phosphorylation", "setting": "human CRP", "value": "did not induce any changes; also recorded: does not have any effect"}, {"measurement": "effect of polypeptide by itself on STAT phosphorylation", "setting": "human CRP; listed as Peptide-E", "value": "did not induce any changes"}, {"measurement": "restoration of leptin-stimulated STAT3 activation in presence of human CRP, Example 8 comparison", "setting": "human CRP", "value": "able to restore"}, {"measurement": "restoration of leptin-stimulated STAT3 activation in presence of human CRP, Example 8 comparison", "setting": "human CRP; listed as Peptide-E", "value": "blocked the inhibitory effect"}, {"measurement": "blocking of the inhibitory effect of human CRP on leptin signaling (STAT3 tyrosine phosphorylation)", "setting": "human CRP", "value": "able to block the inhibitory effect of human CRP and to restore leptin signaling"}]}, {"molecule": "KVQDDTKTLIKTIVTRINDISHTQS (listed as Homo sapiens) [polypeptide B, chemically synthesized human leptin-derived polypeptide, residues 26 to 50]", "values": [{"measurement": "effect of polypeptide by itself on STAT phosphorylation", "setting": "human CRP", "value": "did not induce any changes; also recorded: does not have any effect"}, {"measurement": "blocking of the inhibitory effect of human CRP on leptin signaling (STAT3 tyrosine phosphorylation)", "setting": "human CRP", "value": "able to block the inhibitory effect of human CRP and to restore leptin signaling"}]}, {"molecule": "NH2—S—C—H-L-P—W—COOH (H-SCHLPW-OH) [hexamer, hexamer disclosed in U.S. Pat. No. 6,777,388, reference compound]", "values": [{"measurement": "restoration of leptin-stimulated STAT3 activation in presence of human CRP, Example 8 comparison", "setting": "human CRP", "value": "unable to block"}, {"measurement": "restoration of leptin-stimulated STAT3 activation in presence of human CRP, Example 8 comparison", "setting": "human CRP; listed as L-form", "value": "failed to restore"}]}, {"molecule": "human leptin (from UniProt P41159 22-167) (ligand)", "values": [{"measurement": "Kd", "setting": "[2]", "value": 1, "unit": "nM"}]}, {"molecule": "human serum amyloid P component: control serum protein circulating at much higher concentrations than CRP [reference compound]", "values": [{"measurement": "effect of control serum protein on leptin-induced STAT3 phosphorylation / leptin signaling", "setting": "[3]", "value": "did not influence leptin signaling"}]}, {"molecule": "B1", "values": [{"measurement": "binding result", "setting": "rat C-reactive protein", "value": "binds"}]}, {"molecule": "B2", "values": [{"measurement": "decrease of food intake, PBS pre-injection", "setting": "ob/ob mice [4]; mouse leptin i.c.v. after PBS", "value": 32.9, "unit": "%"}, {"measurement": "reduction of body weight, PBS pre-injection", "setting": "ob/ob mice [4]; mouse leptin i.c.v. after PBS", "value": 1.80, "unit": "%"}, {"measurement": "decrease of food intake, human CRP pre-injection", "setting": "ob/ob mice [4]; [5]", "value": 32.4, "unit": "%"}, {"measurement": "reduction of body weight, human CRP pre-injection", "setting": "ob/ob mice [4]; [5]", "value": 1.76, "unit": "%"}]}, {"molecule": "B3", "values": [{"measurement": "IC50", "setting": "human leptin", "value": "~0.08", "unit": "µg/mL"}, {"measurement": "molecular ratio (CRP:leptin) at the IC50", "setting": "human leptin", "value": 5.8}]}]}
